The nanobody polyreactivity screen of Harvey et al. (2022)

Test: yeast display, Sf9 membrane polyspecificity reagent, FACS + sequencing; frameworks hold sequencing errors
Method in brief: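 After 36–48 hours of galactose induction, yeast (Saccharomyces cerevisiae BJ5465) displaying a synthetic nanobody library were stained at 4 °C for 1 hour with 10% biotinylated, detergent-solubilized Sf9 membrane reagent. Streptavidin microbeads enriched the stained cells before FACS sorting into low and high (top ~1%) gates on anti-HA and streptavidin fluorescence. Each clone's polyreactivity label reflects its gate of origin.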

| Sequence | polyreactivity (PSR sort gate) |
| --- | --- |
| QVQLVESGGGLVQAGGSLRLSCAASGFTFTPYGMGWYRQAPGKERELVAAITWNGGRTYYADSVKGRFTISRDNAKNTVYLQMNSLKPEDTAVYYCAAVAWSWQKRGYWGQGTQVTVSS | high polyreactivity |
| QVQLVESGGGLVQAGGSLRLSCAASGFTFTRNAMGWYRQAPGKERELVAAISSSAGSTSYADSVKGRFTISRDNAKNPVYLQMNRLKPEDTAVYYCATEGSYYSWVGKVGYRYQYHYWGQGTQVTVSS | high polyreactivity |
| QVQLVESGGGLVQAGGSLRLSCAASGFTFTRYAMGWYRPAPGKERELVAAISSRGGSTNYADSVKGRFTISRDNAKNTVYLQMNSLKPEDTAVYYCAAVYYRLRYEYDYWGQGTQVTVSS | high polyreactivity |
| QVQLVESGGGLVQAGGSLRLSCAASGFTFTRYAMGWYRQAPGKERELVAAISRIGGSTYYADSVKGRFTISRDNAKNTVYLQMNSLKPEDTAVYYCAASKVPSYDYWGQGTQVTVSS | high polyreactivity |
| QVQLVESGGGLVQAGGSLRLSCAASGFTFTRYAMGWYRQAPGKERELVAAISRRGGSTYYADSVKGRFTISRDNAKNTVYLQMNSLKPEDTAVYYCAKDAGSRTVREFGYWGQGTQVTVSS | high polyreactivity |
| QVQLVESGGGLVQAGGSLRLSCAASGFTFTRYAMGWYRQAPGKERELVASISTSGGRTYYADSVKGRFTISRDNAKNTVYLQMNSLKPEDTAVYYCAASWNTQSRGWQYDYWGQGTQVTVSS | low polyreactivity |
| QVQLVESGGGLVQAGGSLRLSCAASGFTFTTNAMGWYRQAPGKERELVAAISFSGGTTYYADSVKGRFTISRDNAKNTVYLQMNSLKPEDTAVYYCPAQPGQAWWSTEHDDYWGQGTQVTVSS | low polyreactivity |
| QVQLVESGGGLVQAGGSLRLSCAASGFTFTYNAMGWDRQAPGKERELVAAISWSGGSTRYADSVKGRFTISRDNAKKTVYFQMNSLKPEDTGVYYFNKYTYRGRTGEINYWGQGTQVTVSS | high polyreactivity |
| QVQLVESGGGLVQAGGSLRLSCAASGFTFTYYALGGYRQAPGKERELVARIRGRSGSTYYADSVKGRFTISRDNAKNTVYLQMNSLKPEDTAVYYCNADFNRTVAGTPEVDYWGQGTQVTVSS | high polyreactivity |
| QVQLVESGGGLVQAGGSLRLSCAASGFTFTYYAMGWYRHAPGKERELVAAITNSGGTTYYADSVKGRFTISRDNAKNTVYLQMNSLKPEDTAVYYCAAVPYYVLARSFYRYGYWGQGTQVTVSS | low polyreactivity |
| QVQLVESGGGLVQAGGSLRLSCAASGFTFTYYAMGWYRQAPGKERELVAGITRSGGSTYYADSVKGRFTISRDNAKNTVYLHMNSLKPEDTAVYYCAAVGSLYYYRYDYWGQGTQVTVSS | high polyreactivity |
| QVQLVESGGGLVQAGGSLRLSCAASGFTFTYYAMGWYRQAPGTERELVAAISWRGTSTFYADSVKGRFTISRDNAKNTVYLQMNSLKPEDTAVYYCAAVGQWGYGYWGLGTQVTVSS | high polyreactivity |
| QVQLVESGGGLVQAGGSLRLSCAASGFTFTYYVMGWYRQAPGKERELVAAISVSGGSTYYADSVKGRFTITRDNAKNTVYLQMNSLKPEDTAVYYCAARSPFYSYTPGYEYWGQGTQVTVSS | high polyreactivity |
| QVQLVESGGGLVQAGGSLRLSCAASGFTFVAYAMGWYRQAPGKERELVAAISKSGGNTYYADSVKGRFTISRDNAKNTVYLQMNSLKPEDTAVYYCAAPRRYAWGQVNYWGQGTQVTVSS | high polyreactivity |
| QVQLVESGGGLVQAGGSLRLSCAASGFTFVAYAMGWYRQAPGKERELVAAISRRGGTTYYADSVKGRFTISRDNAKNTVYLQMNSLKPEDTAVYYCNARGFPGKFGYWGQGTQVTVSS | high polyreactivity |
| QVQLVESGGGLVQAGGSLRLSCAASGFTFVDYAMGWYRQAPGKERELVAAISSSGDSTYYADSVKGRFTISRDNAKITVYLQMNSLKPEDTAVYYCAAEYDREEYSGYDYWGQGTQVTVSS | low polyreactivity |
